Test results reported in paper PMC8165797.

Experiments:
Experiment in all cases: purified protein
Format in all cases: biochemical, Irpex lacteus
Settings in all cases: 0.1 mM H2O2, 10 mM sodium tartrate pH 3.5, 3.3 nM enzyme
purified protein [1] = substrate: CCn1c(=NN=c2sc3cc(S(=O)(=O)O)ccc3n2CC)sc2cc(S(=O)(=O)O)ccc21
purified protein [2] = substrate: COc1cccc(OC)c1O
purified protein [3] = substrate: Nc1c(S(=O)(=O)O)cc(Nc2cccc(S(=O)(=O)CCOS(=O)(=O)O)c2)c2c1C(=O)c1ccccc1C2=O

B1: Il-DyP4 (Irpex lacteus; W410F) (protein)
chain: SAGNDSLPFENIQGDILVGMKKDKEKFVFFHINNATAFKSVLKTYAPANITSVATIIGPVANQPLAFVNLAFSHAGFGALNVTDDLQDTAFSDGQFKDSPNLGDDTSTWEEAFKGTNVDGVFLIGSNDESITAQYRDDLNAKFGDAWTIVYDLDSAARPGNEKGHEHFGYLDGISNPTIPGFGTPHPGQAVVDPGIIFTGRSKDPVMNRPSWALDGSFLVFRKLKQLVPEFNKYVLDNALQNQAGNLTVEEGAELLGSRMFGRWKSGAPIDLSPDFDDPALGNDIERNNNFNYSHPGSDLATDQTRCPFTAHIRKTNPRDLEGQGLFGDTFHAIRAGTPYGPEVTDYEASSNTTTIDRGLAFVEYQSVIGNGFRFQQQAFANNPRFPFSKGPSIQLGLDPVIGQGSPRETFGLDPRNASESFTVPQVIISNGGEYFFSPSITAIVEKFAA
notes: monomer, model residues 6-450
B1 was tested, and the Km (purified protein [1]) was 752.00 ± 207.21 µM, the kcat (purified protein [1]) was 316.16 ± 61.61 s ^-1 and the kcat/Km (purified protein [1]) was “(4.20 ± 2.90) × 10^5 M^-1 s^-1”.

B2: Il-DyP4 (Irpex lacteus; W294F) (protein)
chain: SAGNDSLPFENIQGDILVGMKKDKEKFVFFHINNATAFKSVLKTYAPANITSVATIIGPVANQPLAFVNLAFSHAGFGALNVTDDLQDTAFSDGQFKDSPNLGDDTSTWEEAFKGTNVDGVFLIGSNDESITAQYRDDLNAKFGDAWTIVYDLDSAARPGNEKGHEHFGYLDGISNPTIPGFGTPHPGQAVVDPGIIFTGRSKDPVMNRPSWALDGSFLVFRKLKQLVPEFNKYVLDNALQNQAGNLTVEEGAELLGSRMFGRFKSGAPIDLSPDFDDPALGNDIERNNNFNYSHPGSDLATDQTRCPFTAHIRKTNPRDLEGQGLFGDTFHAIRAGTPYGPEVTDYEASSNTTTIDRGLAFVEYQSVIGNGFRFQQQAWANNPRFPFSKGPSIQLGLDPVIGQGSPRETFGLDPRNASESFTVPQVIISNGGEYFFSPSITAIVEKFAA
notes: monomer, model residues 6-450
For B2, the Km (purified protein [1]) was 71.87 ± 20.86 µM, the kcat (purified protein [1]) was 384.85 ± 42.27 s ^-1 and the kcat/Km (purified protein [1]) was “(5.35 ± 2.02) × 10^6 M^-1 s^-1”. The Km (purified protein [2]) was 229.05 ± 30.79 µM, the kcat (purified protein [2]) was 71.21 ± 2.60 s ^-1 and the kcat/Km (purified protein [2]) was “(3.11 ± 0.84) × 10^5 M^-1 s^-1”. For the same protein, the Km (purified protein [3]) was 27.60 ± 7.70 µM, the kcat (purified protein [3]) was 46.11 ± 5.91 s ^-1 and the kcat/Km (purified protein [3]) was “(1.67 ± 0.76) × 10^6 M^-1 s^-1”.

B3: Il-DyP4 (Irpex lacteus; W410Y) (protein)
chain: SAGNDSLPFENIQGDILVGMKKDKEKFVFFHINNATAFKSVLKTYAPANITSVATIIGPVANQPLAFVNLAFSHAGFGALNVTDDLQDTAFSDGQFKDSPNLGDDTSTWEEAFKGTNVDGVFLIGSNDESITAQYRDDLNAKFGDAWTIVYDLDSAARPGNEKGHEHFGYLDGISNPTIPGFGTPHPGQAVVDPGIIFTGRSKDPVMNRPSWALDGSFLVFRKLKQLVPEFNKYVLDNALQNQAGNLTVEEGAELLGSRMFGRWKSGAPIDLSPDFDDPALGNDIERNNNFNYSHPGSDLATDQTRCPFTAHIRKTNPRDLEGQGLFGDTFHAIRAGTPYGPEVTDYEASSNTTTIDRGLAFVEYQSVIGNGFRFQQQAYANNPRFPFSKGPSIQLGLDPVIGQGSPRETFGLDPRNASESFTVPQVIISNGGEYFFSPSITAIVEKFAA
notes: monomer, model residues 6-450
For B3, the Km (purified protein [1]) was 275.07 ± 77.79 µM, the kcat (purified protein [1]) was 88.38 ± 15.66 s ^-1 and the kcat/Km (purified protein [1]) was “(3.21 ± 2.01) × 10^5 M^-1 s^-1”.

B4: Il-DyP4 (Irpex lacteus; W294H) (protein)
chain: SAGNDSLPFENIQGDILVGMKKDKEKFVFFHINNATAFKSVLKTYAPANITSVATIIGPVANQPLAFVNLAFSHAGFGALNVTDDLQDTAFSDGQFKDSPNLGDDTSTWEEAFKGTNVDGVFLIGSNDESITAQYRDDLNAKFGDAWTIVYDLDSAARPGNEKGHEHFGYLDGISNPTIPGFGTPHPGQAVVDPGIIFTGRSKDPVMNRPSWALDGSFLVFRKLKQLVPEFNKYVLDNALQNQAGNLTVEEGAELLGSRMFGRHKSGAPIDLSPDFDDPALGNDIERNNNFNYSHPGSDLATDQTRCPFTAHIRKTNPRDLEGQGLFGDTFHAIRAGTPYGPEVTDYEASSNTTTIDRGLAFVEYQSVIGNGFRFQQQAWANNPRFPFSKGPSIQLGLDPVIGQGSPRETFGLDPRNASESFTVPQVIISNGGEYFFSPSITAIVEKFAA
notes: monomer, model residues 6-450
In the case of B4, the Km (purified protein [2]) is reported as 42.64 ± 6.32 µM, the kcat (purified protein [2]) is reported as 54.29 ± 1.08 s ^-1 and the kcat/Km (purified protein [2]) is reported as “(1.27 ± 0.17) × 10^6 M^-1 s^-1”.

B5: Il-DyP4 (Irpex lacteus) (protein)
chain: SAGNDSLPFENIQGDILVGMKKDKEKFVFFHINNATAFKSVLKTYAPANITSVATIIGPVANQPLAFVNLAFSHAGFGALNVTDDLQDTAFSDGQFKDSPNLGDDTSTWEEAFKGTNVDGVFLIGSNDESITAQYRDDLNAKFGDAWTIVYDLDSAARPGNEKGHEHFGYLDGISNPTIPGFGTPHPGQAVVDPGIIFTGRSKDPVMNRPSWALDGSFLVFRKLKQLVPEFNKYVLDNALQNQAGNLTVEEGAELLGSRMFGRWKSGAPIDLSPDFDDPALGNDIERNNNFNYSHPGSDLATDQTRCPFTAHIRKTNPRDLEGQGLFGDTFHAIRAGTPYGPEVTDYEASSNTTTIDRGLAFVEYQSVIGNGFRFQQQAWANNPRFPFSKGPSIQLGLDPVIGQGSPRETFGLDPRNASESFTVPQVIISNGGEYFFSPSITAIVEKFAA
notes: monomer, model residues 6-450
In the case of B5, the Km (purified protein [1]) is reported as 67.29 ± 13.05 µM, the kcat (purified protein [1]) is reported as 790 ± 56.06 s ^-1 and the kcat/Km (purified protein [1]) is reported as “(1.17 ± 0.43) × 10^7 M^-1 s^-1”. The Km (purified protein [2]) was 8.98 ± 1.02 µM, the kcat (purified protein [2]) was 58.99 ± 0.45 s ^-1 and the kcat/Km (purified protein [2]) was “(6.57 ± 0.44) × 10^6 M^-1 s^-1”. For the same protein, the Km (purified protein [3]) was 139.87 ± 42.85 µM, the kcat (purified protein [3]) was 187.90 ± 37.00 s ^-1 and the kcat/Km (purified protein [3]) was “(1.34 ± 0.86) × 10^6 M^-1 s^-1”.

B6: Il-DyP4 (Irpex lacteus; W294R) (protein)
chain: SAGNDSLPFENIQGDILVGMKKDKEKFVFFHINNATAFKSVLKTYAPANITSVATIIGPVANQPLAFVNLAFSHAGFGALNVTDDLQDTAFSDGQFKDSPNLGDDTSTWEEAFKGTNVDGVFLIGSNDESITAQYRDDLNAKFGDAWTIVYDLDSAARPGNEKGHEHFGYLDGISNPTIPGFGTPHPGQAVVDPGIIFTGRSKDPVMNRPSWALDGSFLVFRKLKQLVPEFNKYVLDNALQNQAGNLTVEEGAELLGSRMFGRRKSGAPIDLSPDFDDPALGNDIERNNNFNYSHPGSDLATDQTRCPFTAHIRKTNPRDLEGQGLFGDTFHAIRAGTPYGPEVTDYEASSNTTTIDRGLAFVEYQSVIGNGFRFQQQAWANNPRFPFSKGPSIQLGLDPVIGQGSPRETFGLDPRNASESFTVPQVIISNGGEYFFSPSITAIVEKFAA
notes: monomer, model residues 6-450
For B6, the Km (purified protein [1]) was 19.47 ± 4.41 µM, the kcat (purified protein [1]) was 52.78 ± 2.86 s ^-1 and the kcat/Km (purified protein [1]) was “(2.71 ± 0.65) × 10^6 M^-1 s^-1”. The Km (purified protein [2]) was 1082.00 ± 283.00 µM, the kcat (purified protein [2]) was 18.28 ± 2.30 s ^-1 and the kcat/Km (purified protein [2]) was “(1.69 ± 0.81) × 10^4 M^-1 s^-1”.

B7: Il-DyP4 (Irpex lacteus; W294Y) (protein)
chain: SAGNDSLPFENIQGDILVGMKKDKEKFVFFHINNATAFKSVLKTYAPANITSVATIIGPVANQPLAFVNLAFSHAGFGALNVTDDLQDTAFSDGQFKDSPNLGDDTSTWEEAFKGTNVDGVFLIGSNDESITAQYRDDLNAKFGDAWTIVYDLDSAARPGNEKGHEHFGYLDGISNPTIPGFGTPHPGQAVVDPGIIFTGRSKDPVMNRPSWALDGSFLVFRKLKQLVPEFNKYVLDNALQNQAGNLTVEEGAELLGSRMFGRYKSGAPIDLSPDFDDPALGNDIERNNNFNYSHPGSDLATDQTRCPFTAHIRKTNPRDLEGQGLFGDTFHAIRAGTPYGPEVTDYEASSNTTTIDRGLAFVEYQSVIGNGFRFQQQAWANNPRFPFSKGPSIQLGLDPVIGQGSPRETFGLDPRNASESFTVPQVIISNGGEYFFSPSITAIVEKFAA
notes: monomer, model residues 6-450
B7 was tested, and the Km (purified protein [2]) was 953.00 ± 102.70 µM, the kcat (purified protein [2]) was 56.25 ± 2.81 s ^-1 and the kcat/Km (purified protein [2]) was “(5.90 ± 2.74) × 10^4 M^-1 s^-1”.

B8: Il-DyP4 (Irpex lacteus; W139F) (protein)
chain: SAGNDSLPFENIQGDILVGMKKDKEKFVFFHINNATAFKSVLKTYAPANITSVATIIGPVANQPLAFVNLAFSHAGFGALNVTDDLQDTAFSDGQFKDSPNLGDDTSTFEEAFKGTNVDGVFLIGSNDESITAQYRDDLNAKFGDAWTIVYDLDSAARPGNEKGHEHFGYLDGISNPTIPGFGTPHPGQAVVDPGIIFTGRSKDPVMNRPSWALDGSFLVFRKLKQLVPEFNKYVLDNALQNQAGNLTVEEGAELLGSRMFGRWKSGAPIDLSPDFDDPALGNDIERNNNFNYSHPGSDLATDQTRCPFTAHIRKTNPRDLEGQGLFGDTFHAIRAGTPYGPEVTDYEASSNTTTIDRGLAFVEYQSVIGNGFRFQQQAWANNPRFPFSKGPSIQLGLDPVIGQGSPRETFGLDPRNASESFTVPQVIISNGGEYFFSPSITAIVEKFAA
notes: monomer, model residues 6-450
B8 was tested, and the Km (purified protein [2]) was 172.71 ± 38.31 µM, the kcat (purified protein [2]) was 69.65 ± 3.46 s ^-1 and the kcat/Km (purified protein [2]) was “(4.03 ± 0.90) × 10^5 M^-1 s^-1”.
